The values below come from US20240400717A1, “Antibody Binding to CHI3L1 for Treating Cancer” (National Cheng Kung University, priority 2021, published 2024).

The target of assay [1] is recombinant CHI3L1 protein (Homo sapiens, UniProt P36222). As to the kind of experiment: ELISA binding specificity, CHI3L1. The conditions noted are these: mAbs 1 μg/ml; coated protein 2.5 μg/ml to 0 μg/ml. As for the experimental part:
(§1) Four selected clones of mAbs including R4-4, R4-54, 293R3-2, and 293R3-4 were further tested for blocking effect on human colorectal (HCT116, SW480, and SW620) and pancreatic cancer cell lines (PANC1 and MiaPaCa-2). […] P values were determined by one-way ANOVA. * P<0.05, ** P<0.01, *** P<0.001, **** P<0.0001. For binding specificity examination, we further coated different concentration of recombinant CHI3L1 protein, and two other major proteins in chitinase family including human chitotriosidase-1 (CHIT1) and CHI3L2 from 2.5 μg/ml to 0 μg/ml, on 96-well plate.
A general note: An ELISA detects its analyte on a solid surface through an enzyme-linked reagent.

For another assay, the system named is HCT116 and A549 cells. As to the kind of experiment: Immunoblot of rCHI3L1-induced AKT and ERK phosphorylation, HCT116 and A549. In kind it is cell-based, human. The conditions noted are these: HCT116 and A549, time course. How it is done:
(§2) The involvement of CHI3L1 in intracellular signaling pathways has been reported. For example, CHI3L1 binding to CD44 activates protein kinase B (AKT) and extracellular signal-regulated kinase (ERK) signaling to promote cancer progression (Chen, Jiang et al. 2021). Thus, we tested whether mAb clones R4-4, R4-54, 293R3-2, and 293R3-4 could attenuate AKT and ERK phosphorylation in human pancreatic (PANC1), colorectal (HCT116), and lung (A549) cancer cell lines. PANC1 cells were treated with rCHI3L1 (100 ng/ml) only or rCHI3L1 with different dose of mAbs as indicated for 20 minutes.
On the technique in general: In western blotting, separated proteins are transferred to a membrane and probed.

The test system of the next assay is MiaPaCa cells. As to the kind of experiment: MiaPaCa orthotopic NOD-SCID mice model. The following applies: for level of CHI3L1 in intratumoral region and plasma: end of experiment; for infiltrated macrophages in tumor sections (F4/80+, CD206+): immunofluorescence; for angiogenesis indicated by CD31 expression / tumor size: mAb 5 mg/kg i.v., gemcitabine 50 mg/kg i.p.; for tumor size: Day 7, 14, 21, 28, sacrificed day 34.

The target in a further assay is T1, hCHI3L1/flag-His (Homo sapiens, UniProt P36222).
T1 construct: human CHI3L1 extracellular domain fused with flag and His tag
T1 sequence (P36222 22-383): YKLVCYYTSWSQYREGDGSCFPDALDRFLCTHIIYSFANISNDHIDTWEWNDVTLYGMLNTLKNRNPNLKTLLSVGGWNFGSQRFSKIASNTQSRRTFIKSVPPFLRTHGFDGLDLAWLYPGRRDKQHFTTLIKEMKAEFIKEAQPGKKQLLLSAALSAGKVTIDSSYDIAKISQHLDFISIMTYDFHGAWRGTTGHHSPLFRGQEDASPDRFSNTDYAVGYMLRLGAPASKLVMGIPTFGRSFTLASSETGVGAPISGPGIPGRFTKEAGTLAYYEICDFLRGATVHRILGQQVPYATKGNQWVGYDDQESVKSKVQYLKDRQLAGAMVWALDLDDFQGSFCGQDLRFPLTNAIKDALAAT
Briefly: In tandem epitope binning on Octet Red96. The class given is binding. The following applies: for epitope cluster: among four anti-CHI3L1 mAbs; for competitive binding class, CHI3L1 293R3-2: paired with CHI3L1 293R3-2; for Epitope Binning Heat Map value, CHI3L1 293R3-2: paired with CHI3L1 293R3-2, 100 nM each; for competitive binding class, CHI3L1 293R3-4: paired with CHI3L1 293R3-4; for competitive binding class, CHI3L1 R4-4: paired with CHI3L1 R4-4; for Epitope Binning Heat Map value, CHI3L1 R4-4: paired with CHI3L1 R4-4, 100 nM each; for competitive binding class, CHI3L1 R4-54: paired with CHI3L1 R4-54; for Epitope Binning Heat Map value, CHI3L1 R4-54: paired with CHI3L1 R4-54, 100 nM each. As for the experimental part: In order to know the epitopic coverage for those four antibodies to increase the success of therapeutic CHI3L1 antibody development, epitope binning is used to characterize the binding site of mAbs to the corresponding antigen and summarized in the Table 4. In epitope binning, mAbs specific to the same target protein are tested pairwise against all mAbs in a set to assess whether they block one another's binding to a specific site of the antigen or not. The mAbs that block binding to the same epitope are “binned” together. mAbs within the same bin often function similarly, so epitope bins can narrow down the choices to fewer candidates for investigators to choose from. The in tandem epitope binning assay conducted on Octet Red96 comprised a five-step binding cycle; 1) a buffer baseline was established for 30 sec, 2) 100 nM hCHI3L1/flag-His was captured for 5 min, 3) 100 nM mAb array was loaded to saturate the captured antigen for 10 min, 4) 100 nM of the test mAb was bound for 5 min, and 5) the capture surfaces were regenerated for 30 sec. Anti-His surfaces were regenerated with 10 mM glycine pH 1.7. Raw data was processed using ForteBio's Data Analysis HT Software 11.1 and the antibody pairs were assessed for competitive binding. Additional binding by the second antibody indicates an unoccupied epitope (non-competitor, marked as *c in Table 4), while no binding indicates epitope blocking (competitor, marked as *b in Table 4) and self-competing antibodies were marked as *a in Table 4. Among four anti-CHI3L1 mAbs, there are two epitope clusters.

In a further assay the test system is PANC1 cells. Briefly: Immunoblot of rCHI3L1-induced AKT and ERK phosphorylation, PANC1. The following applies: PANC1, rCHI3L1 100 ng/ml, 20 minutes, different dose of mAbs. The class given is cell-based, human. How it is done:
as §2

Assay [2] deals with MiaPaCa-2, SW480 and A549 cells. Briefly: Wound healing assay with rCHI3L1. The following applies: MiaPaCa-2, SW480, A549; 16 hours. The class given is cell-based, human. As for the experimental part: Since AKT regulates cell migration, we further performed wound healing assay to examine the anti-migratory effect of mAbs on pancreatic (MiaPaCa-2), colorectal (SW480), and lung (A549) cells. We observed that after 16 hours, the wound closure area was increased compared to that in control groups upon rCHI3L1 treatment. […] Taken together, our fully human monoclonal CHI3L1 neutralizing antibody clones R4-4, R4-54, 293R3-2, and 293R3-4 blocked the CHI3L1 induced signaling and cell behaviors of tumor cells. The data was presented as mean±S.D. (n=3 per group). P values were determined by one-way ANOVA. * P<0.05, ** P<0.01, *** P<0.001, **** P<0.0001.

The target of assay [3] is CHI3L1-receptor(s) interaction on HCT116, SW480, SW620, PANC1 and MiaPaCa-2 (Homo sapiens, UniProt P36222). Briefly: Flow cytometry blockage of rCHI3L1-receptor(s) interaction, colorectal and pancreatic cancer cell lines. In kind it is cell-based. The following applies: HCT116, SW480, SW620, PANC1, MiaPaCa-2, flow cytometry. As for the experimental part: CHI3L1 have been reported to interact with several receptors on cancer cells, and trigger downstream signaling for cancer cell growth, proliferation and anti-apoptosis (Kamba et al. 2013; Lee et al. 2016). […] His-tagged rCHI3L1 was added for CHI3L1-receptor(s) interaction. Anti-His antibody AHAb with fluorescent F recognized CHI3L1-receptor(s) R complex for detection (left, FIG. 4A). Once fully human mAbs (nCHI3L1 Ab) blocked the CHI3L1-receptor(s) interaction, the fluorescent F signals were decreased (right, FIG. 4A) and cell signaling CS was blockade.
Chain of CHI3L1-receptor(s) interaction on HCT116, SW480, SW620, PANC1 and MiaPaCa-2 (P36222 22-383): as above
as §1
On the technique in general: A flow cytometer gives signals particle by particle.

Chain of recombinant CHI3L1 protein (P36222 22-383): as above
Experimental for MiaPaCa cells: Specifically, experimental design of tumor growth inhibition in vivo. MiaPaCa cells (5×10^6) were injected into pancreas of NOD-SCID mice at Day 0. […] Mice were sacrificed on day 34. […] Since fibrosis and angiogenesis are two major issues during tumor progression, we compared the fibrosis and angiogenesis level within each groups.

B1: R4-4: fully human anti-CHI3L1 IgG1 mAb, Table 1 No. 9; heavy chain SEQ ID NO: 9, light chain SEQ ID NO: 10 (antibody, listed as Homo sapiens)
VH: EVQLLESGGGLLQPGGSLRLSCAASGLTFRNYAMTWVRQAPGKGLEWVSTISGNGDETFYADSVKGHFTISRDNSKDTVYLQMNSLRAEDTAVYYCAKGGHYSFFDSWGQGSPVTVSS
light: NFMLTQPHSVSESPGKTVTISCTRSSGSIASNYVQWYQQRPGSSPTTVIYEDNQRPSGVPDRFSGSIDSSSNSASLTISGLKTEDEADYYCQSYDSSNYVFGTGTKVTVLGQPKANPTVTLFPPSSEELQANKATLVCLISDFYPGAVTVAWKADGSPVKAGVETTKPSKQSNNKYAASSYLSLTPEQWKSHRSYSCQVTHEGSTVEKTVAPAECS
Regarding B1, the “binding specificity: recognition of CHI3L1” value in assay [1] was “specifically recognized CHI3L1”. In addition, the “p-AKT and p-ERK levels induced by rCHI3L1” value with HCT116 and A549 cells is “Inhibition of p-AKT and p-ERK”. In addition, in the assay with MiaPaCa cells (5 mg/kg i.v.), the “spleen metastasis tumor nodules” value is listed as “tumor nodules were obviously smaller” and the “infiltrated macrophages in tumor sections (F4/80+, CD206+)” value was “more macrophages other than M2 phenotype”. In the assay on MiaPaCa cells (comparing to IgG control and gemcitabine groups), the “fibrosis indicated by α-SMA” value is listed as “obviously decrease”. For the same molecule, in the assay with MiaPaCa cells, the “level of CHI3L1 in intratumoral region and plasma” value is listed as “lower than IgG control group”; the “angiogenesis indicated by CD31 expression” value is on record as “decreased in every treatment groups”; the tumor size entry is reported as “smaller than IgG control group”. In addition, in the assay with hCHI3L1/flag-His, the epitope cluster entry is recorded as “exclusive epitope”; the “competitive binding class, CHI3L1 293R3-2” value was “*^c”; the “Epitope Binning Heat Map value, CHI3L1 293R3-2” value came out at 0.5680; the “competitive binding class, CHI3L1 293R3-4” value is given as “*^c”. Further, in the assay with hCHI3L1/flag-His, the “competitive binding class, CHI3L1 R4-4” value is “*^a”; the “Epitope Binning Heat Map value, CHI3L1 R4-4” value is given as 0.1232; the “competitive binding class, CHI3L1 R4-54” value is reported as “*^c”; the “Epitope Binning Heat Map value, CHI3L1 R4-54” value worked out at 1.3845. Also, the “p-AKT and p-ERK levels induced by rCHI3L1” value in the assay on PANC1 cells is “inhibited p-AKT and p-ERK levels induced by rCHI3L1 in a dose dependent manner”. In assay [2], the “cell migration ability induced by rCHI3L1 (wound closure area)” value is “significantly reduced cell migration ability”. The “rCHI3L1 binding to cells” value in assay [3] was “significantly reduced”.

B2: 293R3-2: fully human anti-CHI3L1 IgG1 mAb, Table 1 No. 2; heavy chain SEQ ID NO: 65, light chain SEQ ID NO: 66 (antibody, listed as Homo sapiens)
VH: QVQLQESGPGLVEPSGTLSLTCAVSGGSISSSNWWSWVRQHPGKGLEWIGEIYHSGSTNYNPSLRSRVTISVDKSKNQFSLELSSVTAADTAVYYCAGDQRMEDDAFDIWGQGTMVTVSS
light: QSALTQPASVSGSPGQSITISCTGTSSDVGGYNYVSWYQQHPGKAPKLMIYDVSNRPSGVSNRFSGSKSGNTASLTISGLQAEDEADYYCSSYTSSSTLYVFGTGTKVTVLGQPKANPTVTLFPPSSEELQANKATLVCLISDFYPGAVTVAWKADGSPVKAGVETTKPSKQSNNKYAASSYLSLTPEQWKSHRSYSCQVTHEGSTVEKTVAPTECS
In the case of B2, in assay [1], the “binding specificity: recognition of CHI3L1” value is “specifically recognized CHI3L1”. For the same molecule, the “p-AKT and p-ERK levels induced by rCHI3L1” value in the assay on HCT116 and A549 cells was “Inhibition of p-AKT and p-ERK”. In the assay with MiaPaCa cells, the “level of CHI3L1 in intratumoral region and plasma” value is listed as “lower than IgG control group”; the “angiogenesis indicated by CD31 expression” value is on record as “decreased in every treatment groups”; the tumor size result is on record as “smaller than IgG control group”. The “infiltrated macrophages in tumor sections (F4/80+, CD206+)” value with MiaPaCa cells (5 mg/kg i.v.) was “more macrophages other than M2 phenotype”. Moreover, in the assay with hCHI3L1/flag-His, the epitope cluster result is listed as “unidirectional blocking results”; the “competitive binding class, CHI3L1 293R3-2” value is given as “*^a”; the “Epitope Binning Heat Map value, CHI3L1 293R3-2” value is reported as 0.2110; the “competitive binding class, CHI3L1 293R3-4” value is listed as “*^c”. Further, in the assay with hCHI3L1/flag-His, the “competitive binding class, CHI3L1 R4-4” value was “*^c”; the “Epitope Binning Heat Map value, CHI3L1 R4-4” value came out at 0.7478; the “competitive binding class, CHI3L1 R4-54” value is “*^c”; the “Epitope Binning Heat Map value, CHI3L1 R4-54” value was 0.7349. For the same molecule, in the assay with hCHI3L1/flag-His (paired with CHI3L1 293R3-4, 100 nM each), the “Epitope Binning Heat Map value, CHI3L1 293R3-4” value is given as 0.6303. Further, the “p-AKT and p-ERK levels induced by rCHI3L1” value in the assay on PANC1 cells was “inhibited p-AKT and p-ERK levels induced by rCHI3L1 in a dose dependent manner”. In addition, the “cell migration ability induced by rCHI3L1 (wound closure area)” value in assay [2] is recorded as “significantly reduced cell migration ability”. In addition, the “rCHI3L1 binding to cells” value in assay [3] is listed as “significantly reduced”.
